The text below walks through data of US20140170149A1 (Genmab, published 2014).

Where a chain is given by its changes, count along the chain named. In names and notes the source's numbering stands.

The EC50 (read off the curve) is the concentration at which the effect is half-maximal. A higher EC50 (read off the curve) goes with a need for much substance. Broadly, the EC50 is the concentration giving half of the maximal effect. Low readings indicate higher potency in that assay, high ones lower potency in that assay.

To fix the notation:
B1: HER2 HuMab 129 (antibody, V domains shown)
VH: QVQLVESGGGVVQPGRSLRLSCAASGFTFSTFAIHWVRQAPGKGLEWVAVISYDGGHKFYADSVKGRFTISRDNSKNTLYLQMNSLRAEDTAMYYCARGLGVWGAFDYWGQGTLVTVSS
VL: EIVLTQSPATLSLSPGERATLSCRASQSVSSYLAWYQQKPGQAPRLLIYDASNRATGIPARFSGSGSGTDFTLTISSLEPEDFAVYYCQQRSNWWTFGQGTKVEIK
notes: also called PC1014-129
B2: HER2 HuMab 060 (antibody, V domains shown)
VH: EVQLVQSGAEVKKPGESLKISCKGSGYRFTSYWIGWVRQMPGKGLEWMGSIYPGDSYTRNSPSFQGQVTISADKSIATAYLQWNSLKASDTAMYYCARHAGDFYYFDGLDVWGQGTTVTVSS
VL: not shown
notes: also called PC1014-060
B3: HER2 HuMab 059 (antibody, V domains shown)
VH: QVQLVQSGAEVKKPGASVRVPCKASGYTFTRYGISWVRQAPGQGLEWMGWISAYNGKTYYAQKLQGRVTMTTDTSTSTAYMELRSLRSDDTAVYYCARSPLLWFEELYFDYWGQGTLVTVSS
VL: EIVLTQSPGTLSLSPGERATLSCRASQSVSSTYLAWYQQKPGQAPRLLIYGASSRATGIPDRFSGSGSGTDFTLTISRLEPEDFAVYYCQQYGTSLFTFGPGTKVDIK
notes: also called PC1014-059
B4: HER2 HuMab 132 (antibody, V domains shown)
VH: QVQLVQSGAEVKKPGASVKVSCKASGYTFTSYGISWVRQAPGQGLEWMGWISAYNGNSNYVQKFQGRVTMTTDTTTSTAYMELRSLTSDDTAVYYCAREYSYDSGTYFYYGMDVWGQGTTVTVSS
VL: EIVLTQSPATLSLSPGERATLSCRASQSVSSYLAWYQQKPGQAPRLLIYDASNRATGIPARFSGSGSGTDFTLTISSLEPEDFAVYYCQQRSNWPMYTFGQGTKLEIK
notes: also called PC1014-132
B5: HER2 HuMab 025 (antibody, V domains shown)
VH: QVQLQQWGAGLLKPSETLSLTCAVYGGSFSDYYWNWIRQPPGKGLEWIGEIHHSGSTNYNPSLKSRVTISVDTSKNQFSLKLSSVTAADTAVYYCARGYYDSGVYYFDYWAQGTLVTVSS
VL: DIQMTQSPSSLSASVGDRVTITCRASQGISRWLAWYQQKPEKAPKSLIYAASSLRSGVPSRFSGSGSGTDFTLTISSLQPEDFATYYCQQYNSYPITFGQGTRLEIK
notes: also called PC1014-025; TH1014-025
B6: HER2 HuMab 091 (antibody, V domains shown)
VH: QVQLQQWGAGLLKPSETLSLTCAVSGGSFSGYYWTWIRQPPGKGLEWIGEIYHSGDTNYNPSLKSRVTISVDTSKNQFSLKLYSVTAADTAVYYCARLYFGSGIYYLDYWGQGTLVTVSS
VL: B5 VL with R31S, A34V, R55Q, Y94F, I96P, R103K, L104V
notes: also called PC1014-091
B7: HER2 HuMab 098 (antibody, V domains shown)
VH: EVQLLESGGGLVQPGGSLRLSCAASGFTFSNYGMSWVRQAPGKGLEWVSAISGSAYSTYYADSVKGRFTISRDNSKNTLWLQMNSLRAEDTAVYYCAKAHYHGSGSYYTLFDYWGQGTLVTVSS
VL: B5 VL with R31S, R55Q, I96Y, R103K
notes: also called PC1014-098; TH1014-098
B8: HER2 HuMab 159 (antibody, V domains shown)
VH: EVQLVQSGAEVKKPGESLKISCKGSGYNFTSYWIGWVRQMPGKGLEWMGIIYPGDSDTRYSPSFQGQVTISADKSISTAYLQWSSLKASDTAMYYCARWGTYYDILTGYFNWFDPWGQGTLVTVSS
VL: B5 VL with R31S, R55Q, N92Y, S93I, I96W, R103K, L104V
notes: also called PC1014-159
B9: HER2 HuMab 005 (antibody, human IgG1, V domains shown)
VH: EVQLVQSGAEVKKPGESLKISCKASGYSFHFYWIGWVRQMPGKGLEWMGSIYPGDSDTRYRPSFQGQVTISADKSISTAYLQWTSLKASDTAIYYCARQRGDYYYFYGMDVWGQGTTVTVSS
VL: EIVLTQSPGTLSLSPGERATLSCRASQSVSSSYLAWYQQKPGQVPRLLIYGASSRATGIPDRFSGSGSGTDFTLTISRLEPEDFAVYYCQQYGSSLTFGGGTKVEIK
notes: Human IgG1,κ; also called PC1014-005; TH1014-005
B10: HER2 HuMab 127 (antibody, V domains shown)
VH: EVQLVQSGAEVKKPGESLTISCKGSGYSFSIYWIGWVRQMPGKGLEWMGIIFPGDSDIRYSPSFQGQVTISADKSISTAYLQWSSLKASDTAMYYCARQPGDWSPRHWYFDLWGRGTLVTVSS
VL: VIWMTQSPSLLSASTGDRVTISCRMSQGISSYLAWYQQKPGKAPELLIYAASTLQSGVPSRFSGSGSGTDFTLTISYLQSEDFATYYCQQYYSFPLTFGGGTKVEIK
B11: HER2 HuMab 111 (antibody, V domains shown)
VH: QVQLVQSGAEVKKPGSSVKVSCKASGGTFSSYGISWVRQAPGPGLEWMGRIIPILGIANYAQKFQGRVTITADKSTNTAYMELSSLRSEDTAVYYCARDQEYSSNWYYWGQGTLVTVSS
VL: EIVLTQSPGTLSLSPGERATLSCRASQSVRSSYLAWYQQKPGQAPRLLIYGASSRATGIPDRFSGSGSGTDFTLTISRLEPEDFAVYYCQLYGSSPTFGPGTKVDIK
notes: also called PC1014-111
B12: HER2 HuMab 084 (antibody, V domains shown)
VH: QVQLVQSGAEVKKPGSSVKVSCKASGGTFRTYAINWVRQAPGQGLEWMGRINTVLGIVNHAQKFQGRVTITADKSTNTAYMELNSLRSEDTAVYYCAREKGVDYYYGIEVWGQGTTVTVSS
VL: DIQMTQSPSSVSASVGDRVTITCRASQGISSWLAWYQHKPGKAPKLLIYVASTLQSGVPSRFSGSGSGTDFTLTISSLQPEDFATYYCQQANSFPLTFGGGTKVEIK
notes: also called PC1014-084
B13: HER2 HuMab 106 (antibody, V domains shown)
VH: EVQLVQSGAEVKKPGESLKISCKGSGYSFTRYWIGWVRQMPGKGLEWMGIIYPGDSDTRYSPSFQGQVTISADKSISTAYLQWSSLKASDTAMYYCARLTGDRGFDYYSGMDVWGQGTTVTVSS
VL: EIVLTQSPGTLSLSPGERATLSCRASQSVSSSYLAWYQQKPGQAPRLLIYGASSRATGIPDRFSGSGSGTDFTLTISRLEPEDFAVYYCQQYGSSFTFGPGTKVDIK
B14: HER2 HuMab 169 (antibody, V domains shown)
VH: QVQLVQSGAEVKKPGASVKVSCKASGYTFTNYGISWVRQAPGQGLEWMGWLSAYSGNTIYAQKLQGRVTMTTDTSTTTAYMELRSLRSDDTAVYYCARDRIVVRPDYFDYWGQGTLVTVSS
VL: EIVLTQSPATLSLSPGERATLSCRASQSVSSYLAWYQQKPGQAPRLLIYDASNRATGIPARFSGSGSGTDFTLTISSLEPEDFAVYYCQQRSNWPRTFGQGTKVEIK
B15: IgG1-hu-CLB-T3/4-F405L (antibody, V domains shown)
VH: EVQLVESGGGLVKPGGSLRLSCAASGFTFSSYGMFWVRQAPGKGLEWVATISRYSRYIYYPDSVKGRFTISRDNAKNSLYLQMNSLRAEDTAVYYCARRPLYGSSPDYWGQGTLVTVSS
VL: EIVLTQSPATLSLSPGERATLSCSASSSVTYVHWYQQKPGQAPRLLIYDTSKLASGIPARFSGSGSGTDFTLTISSLEPEDFAVYYCFQGSGYPLTFGSGTKLEMR
notes: Expressed as IgG1,κ with F405L
B16: HER2 HuMab 050 (antibody, V domains shown)
VH: EVQLLESGGGLVQPGGSLRLSCAASGFTFSSYAMNWVRQAPGKGLEWVSAISGRGGTTYYADSVKGRFTISRDNSKNTLYLQMSSLRAEDTAVYYCAKARANWDYFDYWGQGTLVTVSS
VL: B12 VL with V50A, T53I, L96I, G100Q, K103R, V104L
notes: also called PC1014-050

The target in one experiment is T1, human epidermal growth factor receptor 2 (HER2) (human, UniProt P04626 23-1255). Description: cell-based or functional assay.
As for B1, the “EC50, fab-CypHer5E internalization assay, AU565 cells” value (shortened to “EC50 … AU565 cells”) worked out at 0.00715 µg/mL and the “Maximal MFI, fab-CypHer5E internalization assay, AU565 cells” value (from here on “Maximal MFI”) was 60300 MFI.
The matching figures for B2: 0.0362 µg/mL and 68200 MFI.
With B3, the “EC50 … AU565 cells” value was found to be 0.0148 µg/mL and the “Maximal MFI” value is 77100 MFI.
Taken in the same sequence, the figures for B4 were 0.0114 µg/mL and 112000 MFI.
The matching figures for B5: 0.0301 µg/mL and 63400 MFI.
B6: the “EC50 … AU565 cells” value is 0.033 µg/mL and the “Maximal MFI” value was found to be 50700 MFI.
The matching figures for B7: 0.0138 µg/mL and 135000 MFI.
For the molecule B8, the “Maximal MFI” value amounted to 92400 MFI.
Regarding B9, the “EC50 … AU565 cells” value is 0.0214 µg/mL and the “Maximal MFI” value came out at 95100 MFI.
The matching figures for B10: roughly 0.00968 µg/mL and 138000 MFI.
The matching figures for B11: 0.0352 µg/mL and 81700 MFI.
Taken in the same sequence, the figures for B12 were 0.0305 µg/mL and 71100 MFI.
On to B13, for which the “EC50 … AU565 cells” value came to 0.0686 µg/mL and the “Maximal MFI” value turned out to be 57400 MFI.
Regarding B14, the “Maximal MFI” value amounted to 38800 MFI.

The next experiment deals with T2, human CD3 protein complex (human, UniProt P07766 23-207; P09693 23-182; P04234 22-171; P20963 22-164).
T2 construct: whole, on cells; also called CD3 on Jurkat cells
T2 sequence (P07766 23-207, form in doubt, chain 1 of 4): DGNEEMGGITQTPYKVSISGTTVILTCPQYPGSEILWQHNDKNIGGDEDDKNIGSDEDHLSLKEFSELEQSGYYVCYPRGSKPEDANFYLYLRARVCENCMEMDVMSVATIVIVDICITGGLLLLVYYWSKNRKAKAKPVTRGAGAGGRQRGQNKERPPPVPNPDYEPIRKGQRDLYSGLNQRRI
T2 sequence (P09693 23-182, form in doubt, chain 2 of 4): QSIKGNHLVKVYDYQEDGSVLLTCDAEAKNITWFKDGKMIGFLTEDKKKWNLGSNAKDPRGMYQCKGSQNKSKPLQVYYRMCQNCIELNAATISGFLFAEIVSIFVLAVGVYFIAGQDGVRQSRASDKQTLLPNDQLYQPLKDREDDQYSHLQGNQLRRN
T2 sequence (P04234 22-171, form in doubt, chain 3 of 4): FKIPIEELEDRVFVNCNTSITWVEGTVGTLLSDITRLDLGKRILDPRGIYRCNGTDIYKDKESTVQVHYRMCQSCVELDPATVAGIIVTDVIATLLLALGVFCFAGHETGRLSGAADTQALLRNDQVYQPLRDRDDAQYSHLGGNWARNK
T2 sequence (P20963 22-164, form in doubt, chain 4 of 4): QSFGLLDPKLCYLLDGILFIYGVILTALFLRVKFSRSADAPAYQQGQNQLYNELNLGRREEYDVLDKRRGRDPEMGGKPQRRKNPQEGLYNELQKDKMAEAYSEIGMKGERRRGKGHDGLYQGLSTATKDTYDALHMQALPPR
Description: flow cytometry on Jurkat cells (CD3-expressing T cell line), MFI (PE) (Example 21).
Consider B15, for which the “EC50 (read off the curve)” value is roughly 0.03 µg/mL.

For another experiment, the target named is T1, human epidermal growth factor receptor …. The experiment in a line: flow cytometry on A431 cells (low HER2), PE-goat anti-human IgG, MFI; EC50 by non-linear regression (Example 12).
Description: (§1) Binding of HER2 antibodies was detected using a Phycoerythrin (PE)-conjugated goat-anti-human IgG antibody (Jackson). […] EC₅₀ values were determined by means of non-linear regression (sigmoidal dose-response with variable slope) using GraphPad Prism V4.03 software (GraphPad Software, San Diego, Calif., USA).
In turn, B5 gave an EC50 of 0.128 µg/mL.
On the same count and under the same terms, next, B6: 0.633 µg/mL; B16: 1.14 µg/mL; B7: 0.101 µg/mL.
In turn, B10 displayed a 50% effective concentration (EC50) of 0.27 µg/mL.
Molecule B12 registered an EC50 of 0.498 µg/mL.

For a further experiment the target is unchanged. The experiment is described as above. The source holds these as a separate data set.
Description: as §1
For the molecule B1, the EC50 worked out at 0.316 µg/mL.
Still for that read-out and setting: next, B4: 0.068 µg/mL; B8: 0.855 µg/mL; B14: 0.415 µg/mL.

The target is the same in a further experiment. Described as above. This is another data set of the same source.
Description: as §1
B2 came in with an EC50 of 1.98 µg/mL.
Still for that read-out and setting: for B3 the value was 0.213 µg/mL; for B9, 0.789 µg/mL; for B11, 0.996 µg/mL.
Still for that read-out and setting: for B13 the value was 1.66 µg/mL.

A further experiment shares this target. The experiment in a line: flow cytometry on AU565 cells (high HER2), PE-goat anti-human IgG, MFI; EC50 by non-linear regression (Example 12). (In general: Flow cytometry measures light scatter and fluorescence of single cells or particles in a stream.)
Description: as §1
For the molecule B5, a half-maximal effect (EC50) was put at 0.58 µg/mL.
On the same count and under the same terms, for B6 the value was 0.965 µg/mL.
The molecule B16 returned an EC50 of 0.722 µg/mL.
On to B7, for which the EC50 worked out at 0.336 µg/mL.
Same read-out and setting: for B10 the value was 2.29 µg/mL; for B12, 0.491 µg/mL.

For another experiment the target is unchanged. The description is as above. The source holds these as a separate data set.
Description: as §1
The molecule B1 registered an EC50 of 0.578 µg/mL.
On the same count and under the same terms, next, B4: 0.911 µg/mL.
B8 had an EC50 of 1.3 µg/mL.
On the same count and under the same terms, next, B14: 0.908 µg/mL.

The next experiment has the same target. The experiment is described as above. The source holds these as a separate data set.
Description: as §1
For B2, the EC50 was 2.68 µg/mL.
Same read-out and setting: for B3 the value was 1.31 µg/mL; for B9, 0.818 µg/mL.
The same measure, in the same setting: next, B11: 0.915 µg/mL; B13: 1.55 µg/mL.
